± gives the uncertainty stated by the source.
Assay: amyloid nucleation score (Sup35N fusion, yeast selection) (log enrichment); library NNK1; higher = more nucleation; inactive = no reads after selection
Summary of the method: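 Three technical output replicates were used for random libraries. Psi-negative yeast expressing peptides of 20 random codons fused to Sup35N were induced with 100 μM copper sulfate for 24 hours and grown 7 days at 30°C on medium lacking adenine and uracil, and input and output plasmid inserts were Illumina-sequenced, excluding sequences with under 100 input reads. The nucleation score is the DiMSum log enrichment of output over input reads, centred on the mode score of non-aggregating sequences.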

**Q.** With LKLLFVTLKMLASMFFRGS as the substance, how does the amyloid nucleation score read?
**A.** The amyloid nucleation score was -1.28 ± 0.77.

**Q.** With LKNSVSFMADGS as the substance, how does the amyloid nucleation score read?
**A.** Its amyloid nucleation score is -0.327 ± 0.38.

**Q.** Which amyloid nucleation score does the source give for LKSDMIADTTAL here?
**A.** Its amyloid nucleation score is 2.67 ± 0.12.

**Q.** With LKSPTWPMSHSDRLTHRLLC as the substance, how does the amyloid nucleation score read?
**A.** Its amyloid nucleation score is 0.004 ± 0.69.

**Q.** Which amyloid nucleation score does the source give for LKTEPHIRLSPLETRPV here?
**A.** Its amyloid nucleation score is 0.552 ± 0.77.

**Q.** With LKWGMVLGAYIHEFGCNM as the substance, how does the amyloid nucleation score read?
**A.** Its amyloid nucleation score is 0.804 ± 0.61.

**Q.** Which amyloid nucleation score does the source give for LKWRV here?
**A.** The amyloid nucleation score was -0.771 ± 1.1.

**Q.** For LLAEASLVKETTLCYHSPSL, which amyloid nucleation score is on record?
**A.** Its amyloid nucleation score is 0.04 ± 0.56.

**Q.** With LLCDWDGQ as the substance, how does the amyloid nucleation score read?
**A.** The amyloid nucleation score was 0.497 ± 0.43.

**Q.** For LLCICWLALICCLNSELGSQ, which amyloid nucleation score is on record?
**A.** The amyloid nucleation score was -0.675 ± 1.

**Q.** For LLCWRYFSCSYFLECVGSTS, which amyloid nucleation score is on record?
**A.** The amyloid nucleation score was -1.14 ± 0.86.

**Q.** With LLFCRFRSWDRDHRWCRCD as the substance, how does the amyloid nucleation score read?
**A.** Its amyloid nucleation score is 1.95 ± 0.66.

**Q.** For LLFFGYYAFDHICYAEYLSC, which amyloid nucleation score is on record?
**A.** Its amyloid nucleation score is 2.71 ± 0.14.

**Q.** Which amyloid nucleation score does the source give for LLFGTHVPIRRGRFDASMIY here?
**A.** The amyloid nucleation score was 0.58 ± 0.5.

**Q.** Which amyloid nucleation score does the source give for LLKRRTREIAALYRHSSNGY here?
**A.** The amyloid nucleation score was 1.26 ± 0.57.

**Q.** With LLKSKRL as the substance, how does the amyloid nucleation score read?
**A.** The amyloid nucleation score was 0.563 ± 0.43.

**Q.** With LLLDTLVCVVKHTNTCFSKW as the substance, how does the amyloid nucleation score read?
**A.** Its amyloid nucleation score is 0.503 ± 0.26.

**Q.** For LLLLIN, which amyloid nucleation score is on record?
**A.** Its amyloid nucleation score is -0.663 ± 1.7.

**Q.** For LLMGFGGAFSVNTADPRLLV, which amyloid nucleation score is on record?
**A.** The amyloid nucleation score was -0.752 ± 0.65.

**Q.** With LLMLGLLSQH as the substance, how does the amyloid nucleation score read?
**A.** Its amyloid nucleation score is 0.427 ± 0.28.

**Q.** With LLMYSKWAFTDYGT as the substance, how does the amyloid nucleation score read?
**A.** Its amyloid nucleation score is -0.147 ± 0.74.

**Q.** For LLNSFPSNCQVKDMELQGME, which amyloid nucleation score is on record?
**A.** The amyloid nucleation score was -0.176 ± 0.93.

**Q.** Which amyloid nucleation score does the source give for LLNYGLRFCLVTARSELTYM here?
**A.** The amyloid nucleation score was 0.979 ± 0.62.

**Q.** Which amyloid nucleation score does the source give for LLPWGYD here?
**A.** The amyloid nucleation score was 2.77 ± 0.15.

**Q.** Which amyloid nucleation score does the source give for LLRNGFHSVLI here?
**A.** Its amyloid nucleation score is 0.488 ± 0.25.

**Q.** For LLRSILTMAY, which amyloid nucleation score is on record?
**A.** Its amyloid nucleation score is 0.605 ± 0.43.

**Q.** For LLSCSYMKIVFI, which amyloid nucleation score is on record?
**A.** The amyloid nucleation score was 1.47 ± 0.16.

**Q.** With LLSYFLRNPYMSNGTTGLHG as the substance, how does the amyloid nucleation score read?
**A.** Its amyloid nucleation score is 0.144 ± 0.79.

**Q.** With LLVNGLMGMWPIFII as the substance, how does the amyloid nucleation score read?
**A.** The amyloid nucleation score was -1.03 ± 2.4.

**Q.** With LLVRHEEKG as the substance, how does the amyloid nucleation score read?
**A.** The amyloid nucleation score was 0.263 ± 0.42.

**Q.** For LMGDLYGSLRMCLVGSRWLL, which amyloid nucleation score is on record?
**A.** The amyloid nucleation score was 0.082 ± 1.2.

**Q.** For LMHKDISERDRSCLWL, which amyloid nucleation score is on record?
**A.** The amyloid nucleation score was 0.033 ± 0.5.

**Q.** Which amyloid nucleation score does the source give for LMLGCGCECHVSSVSQKENM here?
**A.** Its amyloid nucleation score is 0.301 ± 1.1.

**Q.** Which amyloid nucleation score does the source give for LMLPMESAPKRLGEGVGPSR here?
**A.** Its amyloid nucleation score is 0.233 ± 0.47.

**Q.** With LMSEVRPAMLDSSVLRDCYD as the substance, how does the amyloid nucleation score read?
**A.** The amyloid nucleation score was “inactive”.

**Q.** For LMTRSVIVIRLMEEKSAA, which amyloid nucleation score is on record?
**A.** Its amyloid nucleation score is 0.163 ± 1.4.

**Q.** With LMVNYRLRLYFFVLDSCDGE as the substance, how does the amyloid nucleation score read?
**A.** Its amyloid nucleation score is -0.348 ± 0.28.

**Q.** With LMYWLLLMEIRYNLKPLNRL as the substance, how does the amyloid nucleation score read?
**A.** Its amyloid nucleation score is 2.29 ± 0.084.

**Q.** Which amyloid nucleation score does the source give for LNAKFIVKW here?
**A.** The amyloid nucleation score was 0.588 ± 0.21.

**Q.** For LNHCVNMLRGRCGVPLLSVV, which amyloid nucleation score is on record?
**A.** The amyloid nucleation score was 0.551 ± 1.1.

**Q.** For LNHIRRTVR, which amyloid nucleation score is on record?
**A.** Its amyloid nucleation score is 1.23 ± 0.53.

**Q.** With LNHNIFVFFLQIIQTHDIWF as the substance, how does the amyloid nucleation score read?
**A.** The amyloid nucleation score was 4.87 ± 0.09.

**Q.** For LNKVWFSWSRDKVRYTGMLV, which amyloid nucleation score is on record?
**A.** Its amyloid nucleation score is -0.857 ± 0.48.

**Q.** Which amyloid nucleation score does the source give for LNLGGSF here?
**A.** The amyloid nucleation score was “inactive”.

**Q.** For LNLHS, which amyloid nucleation score is on record?
**A.** The amyloid nucleation score was -0.384 ± 1.2.

**Q.** For LNLTMVGIYINDFL, which amyloid nucleation score is on record?
**A.** Its amyloid nucleation score is 4.69 ± 0.099.

**Q.** Which amyloid nucleation score does the source give for LNPLVLSCSGEIDSMFNV here?
**A.** Its amyloid nucleation score is 1.11 ± 0.34.

**Q.** For LNQPWYIRIQANIDFNR, which amyloid nucleation score is on record?
**A.** Its amyloid nucleation score is 4.47 ± 0.079.

**Q.** Which amyloid nucleation score does the source give for LNRFVPASRWDHLHL here?
**A.** Its amyloid nucleation score is -0.353 ± 1.7.

**Q.** Which amyloid nucleation score does the source give for LNRRMNRCCTWLNMCADFFA here?
**A.** The amyloid nucleation score was 0.865 ± 0.75.

**Q.** Which amyloid nucleation score does the source give for LNTWVGVGGWPE here?
**A.** Its amyloid nucleation score is -0.135 ± 0.78.

**Q.** Which amyloid nucleation score does the source give for LNYLYDIMLSSLTSQTDSMS here?
**A.** Its amyloid nucleation score is -0.689 ± 0.66.

**Q.** With LPCMGKLIYVCRSRLEREQS as the substance, how does the amyloid nucleation score read?
**A.** The amyloid nucleation score was 0.498 ± 0.62.

**Q.** For LPDVKCVLLLMLHLEASRSA, which amyloid nucleation score is on record?
**A.** Its amyloid nucleation score is -0.21 ± 0.58.

**Q.** With LPFLS as the substance, how does the amyloid nucleation score read?
**A.** Its amyloid nucleation score is -0.116 ± 0.68.

**Q.** With LPGYVGQ as the substance, how does the amyloid nucleation score read?
**A.** Its amyloid nucleation score is 0.472 ± 0.78.

**Q.** For LPKMWYIDLFVSGVY, which amyloid nucleation score is on record?
**A.** Its amyloid nucleation score is 0.241 ± 0.48.

**Q.** For LPMLLFAHITFNMLNDVSPN, which amyloid nucleation score is on record?
**A.** The amyloid nucleation score was 5.94 ± 0.086.

**Q.** With LPTHHCGLNVSSDGSNSELR as the substance, how does the amyloid nucleation score read?
**A.** Its amyloid nucleation score is 0.068 ± 0.46.

**Q.** With LPTVDMIWIRGFGFQELSWC as the substance, how does the amyloid nucleation score read?
**A.** The amyloid nucleation score was “inactive”.

**Q.** For LPVLLSFVSYGS, which amyloid nucleation score is on record?
**A.** The amyloid nucleation score was -0.162 ± 0.34.

**Q.** Which amyloid nucleation score does the source give for LPWPRNRFCTLIDEIHTPVY here?
**A.** The amyloid nucleation score was -0.167 ± 0.57.

**Q.** For LQAKMTIGAFFISYSSMYPG, which amyloid nucleation score is on record?
**A.** The amyloid nucleation score was 2.74 ± 0.08.

**Q.** For LQEVSWYSTVALTLSNLKWG, which amyloid nucleation score is on record?
**A.** The amyloid nucleation score was -0.389 ± 0.46.

**Q.** Which amyloid nucleation score does the source give for LQFGWFMIYLIKFSPNLRGN here?
**A.** Its amyloid nucleation score is -1.18 ± 1.7.

**Q.** For LQSYWRYRVKRFV, which amyloid nucleation score is on record?
**A.** Its amyloid nucleation score is -0.39 ± 0.39.

**Q.** With LQVKNVYGACFVCAMMVAWE as the substance, how does the amyloid nucleation score read?
**A.** The amyloid nucleation score was 5.18 ± 0.09.

**Q.** With LRAIRE as the substance, how does the amyloid nucleation score read?
**A.** The amyloid nucleation score was 0.33 ± 0.63.

**Q.** For LRCLYIG, which amyloid nucleation score is on record?
**A.** Its amyloid nucleation score is -0.818 ± 0.86.

**Q.** With LRCYEDLFVGLAHGRMRYTG as the substance, how does the amyloid nucleation score read?
**A.** The amyloid nucleation score was -0.561 ± 1.7.

**Q.** For LRDISEH, which amyloid nucleation score is on record?
**A.** Its amyloid nucleation score is -0.588 ± 0.53.

**Q.** Which amyloid nucleation score does the source give for LREFLPLSNTVVGFTLDSYV here?
**A.** Its amyloid nucleation score is -0.526 ± 0.9.

**Q.** For LRFRFSLANAEGLMLPVRHK, which amyloid nucleation score is on record?
**A.** The amyloid nucleation score was -0.216 ± 0.48.

**Q.** Which amyloid nucleation score does the source give for LRFVTINRRSVSVYSSNTKS here?
**A.** Its amyloid nucleation score is “inactive”.

**Q.** Which amyloid nucleation score does the source give for LRGFESTRETVLGSMQQWCL here?
**A.** The amyloid nucleation score was 1.03 ± 0.56.

**Q.** For LRGVLMFMQVRDRADRGRSW, which amyloid nucleation score is on record?
**A.** Its amyloid nucleation score is 0.061 ± 0.47.

**Q.** Which amyloid nucleation score does the source give for LRGVPLYFDGRHMWYAFSRY here?
**A.** The amyloid nucleation score was -0.424 ± 0.47.

**Q.** Which amyloid nucleation score does the source give for LRIPFTSWRYDNEMAVTGSG here?
**A.** Its amyloid nucleation score is 0.394 ± 0.84.

**Q.** For LRKDGSGK, which amyloid nucleation score is on record?
**A.** Its amyloid nucleation score is 1.06 ± 0.21.

**Q.** With LRKSWVQSKHCDIRPDSKAL as the substance, how does the amyloid nucleation score read?
**A.** The amyloid nucleation score was 0.693 ± 0.68.

**Q.** Which amyloid nucleation score does the source give for LRRIKCYTFMIAGSILVVGT here?
**A.** Its amyloid nucleation score is “inactive”.

**Q.** With LRTDALFY as the substance, how does the amyloid nucleation score read?
**A.** Its amyloid nucleation score is 0.577 ± 0.69.

**Q.** For LRVAFIKLKHKKFNDMYRSM, which amyloid nucleation score is on record?
**A.** The amyloid nucleation score was 0.156 ± 0.26.

**Q.** For LRVTSFMIMQLDLECPRCQI, which amyloid nucleation score is on record?
**A.** The amyloid nucleation score was -0.007 ± 0.46.

**Q.** With LRWLSRKILLTVRASN as the substance, how does the amyloid nucleation score read?
**A.** The amyloid nucleation score was -0.125 ± 0.33.

**Q.** Which amyloid nucleation score does the source give for LRYVKSHSTMAFKLGATPGT here?
**A.** The amyloid nucleation score was 0.505 ± 0.66.

**Q.** With LSCIVW as the substance, how does the amyloid nucleation score read?
**A.** Its amyloid nucleation score is -0.366 ± 0.57.

**Q.** With LSGFLSYYLCKPKA as the substance, how does the amyloid nucleation score read?
**A.** Its amyloid nucleation score is -0.887 ± 0.38.

— the supplement of paper PMC12042874
